Results reported in the supplement of paper PMC7125110.
± gives the standard error. Variants at the floor of the assay were thinned out.

B1: glmS ribozyme (parent)
chain: AUAAAAGCGCCAGAACUACAGAAAUGUAGUUGACGAGGAGGAGGUUUAUCGAAUUUUCGGCGGAUGCCUCCAAA

Experiments:
Conditions in all cases: with glucosamine-6-phosphate
glucosamine-6-phosphate [1] = variants of: B1; test: self-cleavage kobs at 40 uM GlcN6P; higher = faster cleavage; RNA array
Summary of the method: (§1)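 Weighted Michaelis–Menten fits across concentrations supplied kcat and KM, based on kobs from one- or two-exponential decay fits to normalised per-tile medians. The data came from barcoded ribozyme variants transcribed in situ by E. coli RNA polymerase on sequenced MiSeq chips and tracked at 37 °C by a hybridised Cy3 probe. Glucosamine-6-phosphate (40 μM to 10 mM) in HEPES/KCl/Mg(OAc)2 buffer was flowed in.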

glucosamine-6-phosphate [2] = variants of: B1; test: self-cleavage kobs at 2500 uM GlcN6P; higher = faster cleavage; RNA array
Summary of the method: as §1

glucosamine-6-phosphate [3] = variants of: B1; test: self-cleavage kobs at 10000 uM GlcN6P; higher = faster cleavage; RNA array
Summary of the method: as §1

glucosamine-6-phosphate [4] = variants of: B1; test: self-cleavage kobs at 160 uM GlcN6P; higher = faster cleavage; RNA array
Summary of the method: as §1

glucosamine-6-phosphate [5] = variants of: B1; test: self-cleavage kobs at 640 uM GlcN6P; higher = faster cleavage; RNA array
Summary of the method: as §1

Row | Variant | self-cleavage kobs at 40 uM GlcN6P (glucosamine-6-phosphate [1]) [s⁻¹] | self-cleavage kobs at 2500 uM GlcN6P (glucosamine-6-phosphate [2]) [s⁻¹] | self-cleavage kobs at 10000 uM GlcN6P (glucosamine-6-phosphate [3]) [s⁻¹] | self-cleavage kobs at 160 uM GlcN6P (glucosamine-6-phosphate [4]) [s⁻¹] | self-cleavage kobs at 640 uM GlcN6P (glucosamine-6-phosphate [5]) [s⁻¹]
1 | C8U G9A C50G C67U | 6.37e-05 ± 1.7e-05 | 0.000169 ± 4.6e-05 | 6.88e-05 ± 1.6e-05 | – | –
2 | A14G A39C G66A | 9.51e-05 ± 2.2e-05 | 0.00447 ± 0.00085 | 0.00527 ± 0.0016 | – | –
3 | C8G C61U G66A C70U | < 1e-05 | – | – | – | –
4 | U31C U69C C70A | < 1e-05 | – | – | – | –
5 | G40C G41C G63U | < 1e-05 | – | – | – | –
6 | A14U U49A | < 1e-05 | – | – | < 1e-05 | < 1e-05
7 | G51C A53C | < 1e-05 | – | – | – | < 1e-05
8 | A36U A39U C50U C61G U65A | < 1e-05 | – | < 1e-05 | – | –
9 | G29A U49A | < 1e-05 | – | – | < 1e-05 | < 1e-05
10 | G37C G38C G40U U55A | < 1e-05 | < 1e-05 | – | – | –
11 | C11U G43C | < 1e-05 | < 1e-05 | – | < 1e-05 | < 1e-05
12 | A12C G35U U47C A48U | < 1e-05 | – | < 1e-05 | – | < 1e-05
13 | U56A U69C | 0.000222 ± 5.9e-05 | 0.000572 ± 0.00015 | 0.00286 ± 0.00081 | 0.000288 ± 6e-05 | 0.000693 ± 0.00019
14 | U46C G62U | < 1e-05 | – | < 1e-05 | < 1e-05 | –
15 | C34U G59A | < 1e-05 | < 1e-05 | – | – | < 1e-05
16 | A36U U49C | < 1e-05 | – | < 1e-05 | < 1e-05 | < 1e-05
17 | G29A G35U C50U | < 1e-05 | – | < 1e-05 | – | –
18 | A12C C16G A36U | < 1e-05 | – | < 1e-05 | – | –
19 | A52C G62U C71A | < 1e-05 | < 1e-05 | – | – | –
20 | A36C A42U | < 1e-05 | – | – | – | –
21 | U31C C68A | < 1e-05 | – | < 1e-05 | – | –
22 | G7U A48U G60C | < 1e-05 | – | – | – | –
23 | G9C C71U | < 1e-05 | < 1e-05 | < 1e-05 | < 1e-05 | < 1e-05

Row | Variant | self-cleavage kobs at 40 uM GlcN6P (glucosamine-6-phosphate [1]) [s⁻¹] | self-cleavage kobs at 2500 uM GlcN6P (glucosamine-6-phosphate [2]) [s⁻¹] | self-cleavage kobs at 10000 uM GlcN6P (glucosamine-6-phosphate [3]) [s⁻¹] | self-cleavage kobs at 160 uM GlcN6P (glucosamine-6-phosphate [4]) [s⁻¹] | self-cleavage kobs at 640 uM GlcN6P (glucosamine-6-phosphate [5]) [s⁻¹]
24 | C8U G63C | < 1e-05 | < 1e-05 | < 1e-05 | < 1e-05 | < 1e-05
25 | G13C A48C | < 1e-05 | < 1e-05 | < 1e-05 | < 1e-05 | –
26 | A33C G43A U47G | < 1e-05 | < 1e-05 | – | < 1e-05 | < 1e-05
27 | C16U G40U C68G | < 1e-05 | – | < 1e-05 | < 1e-05 | –
28 | A6C G60U | < 1e-05 | < 1e-05 | < 1e-05 | < 1e-05 | < 1e-05
29 | A39C G59C | < 1e-05 | < 1e-05 | < 1e-05 | < 1e-05 | < 1e-05
30 | A14G U31A | 0.00248 ± 0.00049 | 0.0146 ± 0.006 | 0.0669 ± 0.024 | 0.0027 ± 0.00061 | 0.00935 ± 0.0021
31 | G13U C16U C70U | 5.86e-05 ± 1.3e-05 | – | 0.00165 ± 0.00029 | – | –
32 | A6C C8U A14G | < 1e-05 | – | < 1e-05 | – | –
33 | A39C U69G | < 1e-05 | – | < 1e-05 | – | < 1e-05
34 | G32A G44U | < 1e-05 | – | – | – | < 1e-05
35 | G35A U45C C71U | < 1e-05 | < 1e-05 | < 1e-05 | – | –
36 | G32C U57A | < 1e-05 | – | – | – | –
37 | C34G G41C G66U | < 1e-05 | – | < 1e-05 | – | –
38 | G35U C67G C71A | < 1e-05 | – | – | – | –
39 | G7C C50U | < 1e-05 | < 1e-05 | – | < 1e-05 | < 1e-05
40 | A14U A15G A53G | 0.000126 ± 2.3e-05 | – | 0.0102 ± 0.0019 | – | –
41 | C16U G29A G37C | < 1e-05 | – | 5.01e-05 ± 1.6e-05 | – | –
42 | G13A G44A | < 1e-05 | – | – | – | –
43 | C10G A15G U30G G63U | < 1e-05 | – | < 1e-05 | – | < 1e-05
44 | U55A G62U | < 1e-05 | < 1e-05 | < 1e-05 | – | < 1e-05
45 | G35C C61U | < 1e-05 | < 1e-05 | < 1e-05 | < 1e-05 | < 1e-05
46 | A36U C61A C67U | 5.22e-05 ± 2.3e-05 | – | – | – | –

Row | Variant | self-cleavage kobs at 40 uM GlcN6P (glucosamine-6-phosphate [1]) [s⁻¹] | self-cleavage kobs at 2500 uM GlcN6P (glucosamine-6-phosphate [2]) [s⁻¹] | self-cleavage kobs at 10000 uM GlcN6P (glucosamine-6-phosphate [3]) [s⁻¹] | self-cleavage kobs at 160 uM GlcN6P (glucosamine-6-phosphate [4]) [s⁻¹] | self-cleavage kobs at 640 uM GlcN6P (glucosamine-6-phosphate [5]) [s⁻¹]
47 | A33C G40C G44U C50U | < 1e-05 | < 1e-05 | – | – | –
48 | C11G G41C C50U | < 1e-05 | – | – | – | –
49 | C8G C67A | < 1e-05 | < 1e-05 | < 1e-05 | < 1e-05 | < 1e-05
50 | G7U G13U A53G | < 1e-05 | – | – | – | –
51 | G7U C34U | < 1e-05 | < 1e-05 | – | – | –
52 | C34A C61A G63U | < 1e-05 | – | < 1e-05 | – | –
53 | G7U A36U G40C | < 1e-05 | < 1e-05 | < 1e-05 | – | –
54 | A39U A42C U54C U65C | < 1e-05 | < 1e-05 | – | – | < 1e-05
55 | A36C G37A C58G | < 1e-05 | < 1e-05 | < 1e-05 | – | –
56 | C34A G40C U46C | < 1e-05 | – | – | – | –
57 | G13C U49G | < 1e-05 | – | – | < 1e-05 | < 1e-05
58 | C10U A12G G43U | < 1e-05 | < 1e-05 | < 1e-05 | – | < 1e-05
59 | C34A G60U C68A | < 1e-05 | < 1e-05 | – | – | < 1e-05
60 | C16U G32U A48C G59C | < 1e-05 | – | < 1e-05 | – | –
61 | A36C A48G | < 1e-05 | – | < 1e-05 | – | –
62 | G35U C61A | < 1e-05 | < 1e-05 | < 1e-05 | – | < 1e-05
63 | C16A G59C | < 1e-05 | – | – | – | < 1e-05
64 | C8G A64G | < 1e-05 | < 1e-05 | < 1e-05 | < 1e-05 | –
65 | A15C C16G G41A | < 1e-05 | – | – | – | –
66 | G37C G62C | < 1e-05 | – | < 1e-05 | – | < 1e-05
67 | G7C U47G U56G G59U G60C | < 1e-05 | – | – | – | –
68 | C10A G29C U56C A64G | < 1e-05 | – | – | – | –
69 | A6U C58U | < 1e-05 | < 1e-05 | < 1e-05 | < 1e-05 | < 1e-05

Row | Variant | self-cleavage kobs at 40 uM GlcN6P (glucosamine-6-phosphate [1]) [s⁻¹] | self-cleavage kobs at 2500 uM GlcN6P (glucosamine-6-phosphate [2]) [s⁻¹] | self-cleavage kobs at 10000 uM GlcN6P (glucosamine-6-phosphate [3]) [s⁻¹] | self-cleavage kobs at 160 uM GlcN6P (glucosamine-6-phosphate [4]) [s⁻¹] | self-cleavage kobs at 640 uM GlcN6P (glucosamine-6-phosphate [5]) [s⁻¹]
70 | C50A G62U G63A | < 1e-05 | < 1e-05 | < 1e-05 | < 1e-05 | < 1e-05
71 | G7C U65G | < 1e-05 | < 1e-05 | < 1e-05 | – | < 1e-05
72 | A42G G66A | 0.000416 ± 6.5e-05 | 0.00984 ± 0.0018 | 0.0267 ± 0.0068 | 0.000862 ± 0.0002 | 0.00611 ± 0.00079
73 | A12C G41U | 5.28e-05 ± 7e-06 | 0.00034 ± 6.3e-05 | 0.00129 ± 0.00013 | 7.73e-05 ± 8.9e-06 | 0.00028 ± 6.1e-05
74 | C11G A64U C67A | < 1e-05 | – | < 1e-05 | – | –
75 | C8G G40U | < 1e-05 | < 1e-05 | < 1e-05 | – | < 1e-05
76 | C8G C16G G41A U47A | < 1e-05 | < 1e-05 | < 1e-05 | – | < 1e-05
77 | C16G G59U | < 1e-05 | < 1e-05 | – | – | < 1e-05
78 | C34U C61A C67U | 0.00014 ± 3.8e-05 | 5.38e-05 ± 2.6e-05 | 0.000236 ± 6.1e-05 | – | 0.000388 ± 0.00011
79 | G35A U45C | < 1e-05 | < 1e-05 | < 1e-05 | – | < 1e-05
80 | A6C G43U | < 1e-05 | < 1e-05 | < 1e-05 | < 1e-05 | < 1e-05
81 | C11U C50A C70G | 9.07e-05 ± 2.5e-05 | 0.000173 ± 6e-05 | 5.4e-05 ± 1.6e-05 | – | 0.000365 ± 8.8e-05
82 | A42C U45A C67A | < 1e-05 | – | – | – | –
83 | A12U A36G A52U C71G | < 1e-05 | < 1e-05 | < 1e-05 | – | –
84 | G37U G40U U45C | < 1e-05 | – | < 1e-05 | – | –
85 | A6G G51A | < 1e-05 | < 1e-05 | < 1e-05 | < 1e-05 | < 1e-05
86 | A14C C34A | < 1e-05 | – | < 1e-05 | < 1e-05 | < 1e-05
87 | C8U U47C | < 1e-05 | < 1e-05 | < 1e-05 | < 1e-05 | < 1e-05
88 | C8U G9A C16U C50U A52U | < 1e-05 | < 1e-05 | < 1e-05 | – | –
89 | C10A A36G G40C U47G | < 1e-05 | – | – | – | –
90 | A15C C61U U69G | < 1e-05 | – | < 1e-05 | – | –
